± gives the uncertainty stated by the source.
Assay: self-splicing fitness, log relative to wild type (ln ratio); higher = more splicing; Tetrahymena group I intron in knt gene, E. coli kanamycin selection, DiMSum; sequences stand for … in CUCUCU…GGAGGGAAAAGUUAUCAGGCAUGCACCUGGUAGCUAGUCUUUAAACCAAUAGAUUGCAUCGGUUUAAAAGGCAAGACCGUCAAAUUGCGGGAAAGGGGUCAACAGCCGUUCAGUACCAAGUCUCAGGGGAAACUUUGAGAUGGCCUUGCAAAGGGUAUGGUAAUAAGCUGACGGACAUGGUCCUAACCACGCAGCCAAGUCCUAAGUCAACAGAUCUUCUGUUGAUAUGGAUGCAGUUCACAGACUAAAUGUCGGUCGGGGAAGAUGUAUUCUUCUCAUAAGAUAUAGUCGGACCUCUCCUUAAUGGGAGCUAGCGGAUGAAGUGAUGCAACACUGGAGCCGCUGGGAACUAAUUUGUAUGCGAAAGUAUAUUGAUUAGUUUUGGAGUACUCGUGGUCG
Summary of the method: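 Library with all eight P1ex-region intron nucleotides randomised, intron inside the knt kanamycin-resistance gene on pET-22b(+), in E. coli BL21(DE3). Cells grew overnight at 37°C or 30°C on LB agar with or without 25 μg/mL kanamycin (plus 100 μg/mL carbenicillin, 50 μM IPTG, 0.2% rhamnose), in six replicate transformations. Pooled colonies were amplicon-sequenced on Illumina HiSeq 2500. DiMSum fitness is the error-weighted combination of wild-type-normalised replicate fold changes, kanamycin versus none.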

With CCUCAGCAAUAUUACGUAUC the “self-splicing fitness (ln)” value (30 °C) was -0.834 ± 0.13 and the “self-splicing fitness (ln)” value (37 °C) was -3.05 ± 0.26.

In the case of CCUCAGCAAUAUUACGUUAA, the “self-splicing fitness (ln)” value (30 °C) is reported as -2.89 ± 0.17 and the “self-splicing fitness (ln)” value (37 °C) is reported as -2.96 ± 0.23.

In the case of CCUCAGCAAUAUUACGUUCC, the “self-splicing fitness (ln)” value (30 °C) is reported as -3.09 ± 0.15 and the “self-splicing fitness (ln)” value (37 °C) is reported as -2.42 ± 0.33.

In the case of CCUGAGCAAUAUUACGAAAU, the “self-splicing fitness (ln)” value (30 °C) is reported as -3.15 ± 0.29 and the “self-splicing fitness (ln)” value (37 °C) is reported as -0.975 ± 0.19.

With CCUGAGCAAUAUUACGACGG the “self-splicing fitness (ln)” value (30 °C) was -3.06 ± 0.25 and the “self-splicing fitness (ln)” value (37 °C) was -2.59 ± 0.48.

In the case of CCUGAGCAAUAUUACGACUC, the “self-splicing fitness (ln)” value (30 °C) is reported as -1.44 ± 0.36 and the “self-splicing fitness (ln)” value (37 °C) is reported as -1.6 ± 0.49.

For CCUGAGCAAUAUUACGCAGA, the “self-splicing fitness (ln)” value (30 °C) was -3.44 ± 0.23 and the “self-splicing fitness (ln)” value (37 °C) was -1.96 ± 0.15.

In the case of CCUGAGCAAUAUUACGCAUC, the “self-splicing fitness (ln)” value (30 °C) is reported as -3.39 ± 0.44.

For CCUGAGCAAUAUUACGCCAC, the “self-splicing fitness (ln)” value (30 °C) was -3.2 ± 0.45 and the “self-splicing fitness (ln)” value (37 °C) was -1.35 ± 0.36.

With CCUGAGCAAUAUUACGCCAG the “self-splicing fitness (ln)” value (30 °C) was -2.75 ± 0.41 and the “self-splicing fitness (ln)” value (37 °C) was -1.62 ± 0.32.

With CCUGAGCAAUAUUACGCCGG the “self-splicing fitness (ln)” value (37 °C) was -1.71 ± 0.39.

With CCUGAGCAAUAUUACGCGAG the “self-splicing fitness (ln)” value (30 °C) was -4.35 ± 0.42 and the “self-splicing fitness (ln)” value (37 °C) was -2.63 ± 0.28.

With CCUGAGCAAUAUUACGCGUU the “self-splicing fitness (ln)” value (30 °C) was -3.53 ± 0.29 and the “self-splicing fitness (ln)” value (37 °C) was -3.12 ± 0.35.

For CCUGAGCAAUAUUACGCUUC, the “self-splicing fitness (ln)” value (30 °C) was -3.16 ± 0.48 and the “self-splicing fitness (ln)” value (37 °C) was -2.4 ± 0.41.

With CCUGAGCAAUAUUACGGAAG the “self-splicing fitness (ln)” value (30 °C) was -2.82 ± 0.15 and the “self-splicing fitness (ln)” value (37 °C) was -1.29 ± 0.12.

For CCUGAGCAAUAUUACGGACU, the “self-splicing fitness (ln)” value (30 °C) was -1.55 ± 0.13 and the “self-splicing fitness (ln)” value (37 °C) was -3.3 ± 0.32.

In the case of CCUGAGCAAUAUUACGGCGU, the “self-splicing fitness (ln)” value (30 °C) is reported as -3.51 ± 0.2 and the “self-splicing fitness (ln)” value (37 °C) is reported as -2.88 ± 0.19.

For CCUGAGCAAUAUUACGGGCC, the “self-splicing fitness (ln)” value (30 °C) was -3.87 ± 0.31 and the “self-splicing fitness (ln)” value (37 °C) was -2.45 ± 0.23.

For CCUGAGCAAUAUUACGGGUC, the “self-splicing fitness (ln)” value (30 °C) was -2.95 ± 0.17 and the “self-splicing fitness (ln)” value (37 °C) was -2.87 ± 0.27.

In the case of CCUGAGCAAUAUUACGGUGU, the “self-splicing fitness (ln)” value (30 °C) is reported as -3.89 ± 0.24 and the “self-splicing fitness (ln)” value (37 °C) is reported as -2.32 ± 0.14.

In the case of CCUGAGCAAUAUUACGUAAG, the “self-splicing fitness (ln)” value (30 °C) is reported as -3.03 ± 0.19 and the “self-splicing fitness (ln)” value (37 °C) is reported as -1.6 ± 0.12.

With CCUGAGCAAUAUUACGUACA the “self-splicing fitness (ln)” value (30 °C) was -3.13 ± 0.33 and the “self-splicing fitness (ln)” value (37 °C) was -0.722 ± 0.3.

With CCUGAGCAAUAUUACGUCGG the “self-splicing fitness (ln)” value (30 °C) was -4.36 ± 0.36 and the “self-splicing fitness (ln)” value (37 °C) was -2.47 ± 0.23.

With CCUGAGCAAUAUUACGUCGU the “self-splicing fitness (ln)” value (30 °C) was -2.02 ± 0.43 and the “self-splicing fitness (ln)” value (37 °C) was -2.06 ± 0.27.

In the case of CCUGAGCAAUAUUACGUGAA, the “self-splicing fitness (ln)” value (30 °C) is reported as -4.54 ± 0.34 and the “self-splicing fitness (ln)” value (37 °C) is reported as -2.83 ± 0.21.

With CCUGAGCAAUAUUACGUGCC the “self-splicing fitness (ln)” value (37 °C) was -1.6 ± 0.32.

For CCUGAGCAAUAUUACGUUAA, the “self-splicing fitness (ln)” value (30 °C) was -2.92 ± 0.24 and the “self-splicing fitness (ln)” value (37 °C) was -2.52 ± 0.26.

In the case of CCUGAGCAAUAUUACGUUAU, the “self-splicing fitness (ln)” value (30 °C) is reported as -3.15 ± 0.26 and the “self-splicing fitness (ln)” value (37 °C) is reported as -1.96 ± 0.21.

For CCUGAGCAAUAUUACGUUCU, the “self-splicing fitness (ln)” value (30 °C) was -3.63 ± 0.25 and the “self-splicing fitness (ln)” value (37 °C) was -2.43 ± 0.25.

For CCUUAGCAAUAUUACGAACG, the “self-splicing fitness (ln)” value (30 °C) was -0.742 ± 0.18 and the “self-splicing fitness (ln)” value (37 °C) was -0.847 ± 0.25.

With CCUUAGCAAUAUUACGACCA the “self-splicing fitness (ln)” value (30 °C) was -2.66 ± 0.36.

With CCUUAGCAAUAUUACGAGUC the “self-splicing fitness (ln)” value (37 °C) was -2.7 ± 0.28.

With CCUUAGCAAUAUUACGAUGC the “self-splicing fitness (ln)” value (30 °C) was -4.15 ± 0.27 and the “self-splicing fitness (ln)” value (37 °C) was -2.62 ± 0.17.

With CCUUAGCAAUAUUACGCCGG the “self-splicing fitness (ln)” value (30 °C) was -3.82 ± 0.28 and the “self-splicing fitness (ln)” value (37 °C) was -2.73 ± 0.26.

With CCUUAGCAAUAUUACGCCUG the “self-splicing fitness (ln)” value (37 °C) was -2.89 ± 0.34.

In the case of CCUUAGCAAUAUUACGCCUU, the “self-splicing fitness (ln)” value (30 °C) is reported as -3.52 ± 0.32 and the “self-splicing fitness (ln)” value (37 °C) is reported as -2.57 ± 0.24.

In the case of CCUUAGCAAUAUUACGCGGA, the “self-splicing fitness (ln)” value (30 °C) is reported as -2.93 ± 0.19 and the “self-splicing fitness (ln)” value (37 °C) is reported as -2.55 ± 0.21.

For CCUUAGCAAUAUUACGCUAU, the “self-splicing fitness (ln)” value (30 °C) was -3.14 ± 0.14 and the “self-splicing fitness (ln)” value (37 °C) was -2.64 ± 0.18.

With CCUUAGCAAUAUUACGCUGA the “self-splicing fitness (ln)” value (30 °C) was -3.23 ± 0.47.

With CCUUAGCAAUAUUACGGAUA the “self-splicing fitness (ln)” value (30 °C) was -2.98 ± 0.29 and the “self-splicing fitness (ln)” value (37 °C) was -1.92 ± 0.37.

For CCUUAGCAAUAUUACGGCGU, the “self-splicing fitness (ln)” value (30 °C) was -3.94 ± 0.33 and the “self-splicing fitness (ln)” value (37 °C) was -2.78 ± 0.32.

For CCUUAGCAAUAUUACGGGGG, the “self-splicing fitness (ln)” value (30 °C) was -3.17 ± 0.23 and the “self-splicing fitness (ln)” value (37 °C) was -1.39 ± 0.23.

For CCUUAGCAAUAUUACGGGUA, the “self-splicing fitness (ln)” value (30 °C) was -2.65 ± 0.19 and the “self-splicing fitness (ln)” value (37 °C) was -2.38 ± 0.26.

In the case of CCUUAGCAAUAUUACGGGUU, the “self-splicing fitness (ln)” value (37 °C) is reported as -1.5 ± 0.21.

In the case of CCUUAGCAAUAUUACGGUAC, the “self-splicing fitness (ln)” value (30 °C) is reported as -4.06 ± 0.21 and the “self-splicing fitness (ln)” value (37 °C) is reported as -2.44 ± 0.19.
